Measurements: paper PMC7018516, “Structure of the AAA protein Msp1 reveals mechanism of mislocalized membrane protein extraction” (eLife, 2020)
Blank lines part the entries; values can stand above or below the compound they belong to.

Columns and labels:
Δ30-Msp1 [1] = target: T1, Δ30-Msp1 (Thermochaetoides thermophila, UniProt G0S654); assay: cryo-EM structure of complex; details: 5 mM ADP•BeFx, 5 mM MgCl2, pH 7.5; ADP without BeFx in subunit M5; nucleotide-binding pocket; substrate peptide in pore
T1 construct: gene CTHT_0034230; cytosolic domain lacking the 30-residue N-terminal membrane anchor; GST tag removed by thrombin; expressed in E. coli BL21(DE3); homohexamer with trapped endogenous E. coli peptide in the pore

Δ30-Msp1 [2] = target: T2, Δ30-Msp1 (Thermochaetoides thermophila, UniProt G0S654, E214Q); assay: cryo-EM structure of complex; details: 2 mM ATP, 2 mM MgCl2, pH 7.5; subunits M1-M5; nucleotide-binding pocket; Walker B mutant, hydrolysis inactive
T2 construct: gene CTHT_0034230; cytosolic domain lacking the 30-residue N-terminal membrane anchor; GST tag removed by thrombin; expressed in E. coli BL21(DE3); homohexamer with trapped endogenous E. coli peptide in the pore

[3] = target: Δ30-Msp1 (cytosolic domain of Chaetomium thermophilum Msp1 lacking its 30 amino acid N-terminal membrane anchor) (Chaetomium thermophilum); assay: cryo-EM structure; Δ30-Msp1 at 50–100 μM with 5 mM MgCl2 and 5 mM ADP•BeFx, 25 mM HEPES pH 7.5, 300 mM NaCl, 1 mM DTT, 2.5% glycerol; subunit with subunit; open and closed conformations
[4] = target: Δ30-Msp1 (cytosolic domain of Chaetomium thermophilum Msp1 lacking its 30 amino acid N-terminal membrane anchor) (Chaetomium thermophilum); assay: SEC; gel filtration of the purified protein in Msp1 lysis buffer (25 mM HEPES pH 7.5, 300 mM NaCl, 1 mM DTT, 2 mM MgCl2); self-association
[5] = target: Δ30-Msp1^E214Q (Walker B mutant of the cytosolic domain of Chaetomium thermophilum Msp1) (Chaetomium thermophilum); assay: cryo-EM structure; Δ30-Msp1^E214Q at 50–100 μM with 2 mM ATP and 2 mM MgCl2, 25 mM HEPES pH 7.5, 300 mM NaCl, 1 mM DTT, 2.5% glycerol; subunit with subunit; hexamer and larger oligomer classes
[6] = target: Δ30-Msp1^E214Q (Walker B mutant of the cytosolic domain of Chaetomium thermophilum Msp1) (Chaetomium thermophilum); assay: SEC; gel filtration of the purified protein in Msp1 lysis buffer (25 mM HEPES pH 7.5, 300 mM NaCl, 1 mM DTT, 2 mM MgCl2); self-association
[7] = target: Δ30-Msp1^E214Q (Walker B mutant of the cytosolic domain of Chaetomium thermophilum Msp1) (Chaetomium thermophilum); assay: cryo-EM structure; Δ30-Msp1^E214Q at 50–100 μM with 2 mM ATP and 2 mM MgCl2, 25 mM HEPES pH 7.5, 300 mM NaCl, 1 mM DTT, 2.5% glycerol; subunit with subunit; hexamer and larger oligomer classes; remark: listed apart in the source

T2 sequence (G0S654 entry or part of it E214Q): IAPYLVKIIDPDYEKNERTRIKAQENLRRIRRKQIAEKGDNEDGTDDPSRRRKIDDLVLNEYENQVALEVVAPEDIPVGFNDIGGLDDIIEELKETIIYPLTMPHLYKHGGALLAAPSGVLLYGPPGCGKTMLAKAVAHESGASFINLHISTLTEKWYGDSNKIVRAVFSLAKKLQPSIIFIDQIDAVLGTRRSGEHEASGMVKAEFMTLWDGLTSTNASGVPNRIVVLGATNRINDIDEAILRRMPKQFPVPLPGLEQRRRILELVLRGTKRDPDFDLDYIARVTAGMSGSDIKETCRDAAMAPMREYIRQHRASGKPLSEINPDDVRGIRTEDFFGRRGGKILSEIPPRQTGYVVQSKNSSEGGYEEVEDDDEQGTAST
T1 sequence (G0S654 entry or part of it, stated change not applied): as the sequence (G0S654 entry or part of it E214Q) above, with Q184E counted along it

Compound: Nc1ncnc2c1ncn2[C@@H]1O[C@H](COP(=O)(O)OP(=O)(O)O)[C@@H](O)[C@H]1O [ADP]
cryo-EM structure of complex (Δ30-Msp1 [1]): M1 -M4 were bound to ADP•BeFx (mimicking the ATP state), M5 was bound to ADP

Compound: Nc1ncnc2c1ncn2[C@@H]1O[C@H](COP(=O)(O)OP(=O)(O)OP(=O)(O)O)[C@@H](O)[C@H]1O [ATP]
cryo-EM structure of complex (Δ30-Msp1 [2]): In Δ30-Msp1^E214Q, M1-M5 display clear density for ATP

stoichiometry N [3]: 6
stoichiometry N [4]: 6
Compound: Δ30-Msp1 (cytosolic domain of Chaetomium thermophilum Msp1 lacking its 30 amino acid N-terminal membrane anchor) (enzyme)

stoichiometry N [5]: 6
stoichiometry N [6]: > 6
stoichiometry N [7]: 7
Compound: Δ30-Msp1^E214Q (Walker B mutant of the cytosolic domain of Chaetomium thermophilum Msp1) (enzyme)
